Assay results: the supplement of paper PMC12042874
± gives the uncertainty stated by the source.

Experiment: amyloid nucleation score (Sup35N fusion, yeast selection) (log enrichment); library NNK1; higher = more nucleation; inactive = no reads after selection
Outline: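 Psi-negative yeast expressed Sup35N fused to peptides of 20 random codons. They were induced 24 hours with 100 μM copper sulfate, grown 7 days at 30°C without adenine and uracil, and their plasmid inserts from input and output were Illumina-sequenced. The nucleation score is the DiMSum log enrichment of output over input reads, centred on the mode score of non-aggregating sequences. Sequences with under 100 input reads were excluded.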

Row | Substance | amyloid nucleation score
1 | SQFISK | 1.14 ± 0.52
2 | TYYGVSPDTASNAACLYPRH | -0.746 ± 1.9
3 | ILVGCSKSRRLNGGQLLIPS | 0.314 ± 0.45
4 | WTYWGSCGGLWSKIFIYFLL | 3.66 ± 0.078
5 | LAHWHFNWSRILQCFYW | 3.08 ± 0.095
6 | LWLIVEDSVYFVGMQGHIFN | -0.381 ± 0.39
7 | LMGGNDNWGTTNPEDGILIW | -0.347 ± 0.41
8 | YANCL | 0.517 ± 0.44
9 | NLGYDCGLGAMSGWMRWLIS | 0.459 ± 0.64
10 | CLNVCSLFRSTYRFKRVREC | 0.434 ± 0.37
11 | TYNRGMGGRISVFCLFTGVM | 0.078 ± 0.21
12 | CCHYDHKSGVNSLRRKTNVW | 1.57 ± 0.43
13 | CVALGLLGRCVLLVAGGGWA | 0.503 ± 0.54
14 | IIRFWLTSVVIYMSFLCRGR | -1.2 ± 1.9
15 | LLRGSCFMCSLLDYALVKEG | 3.84 ± 0.1
16 | SADPSNYRERIFLKLMKLHG | -0.514 ± 0.37
17 | IIILYMLRPAMSGWDVFACC | 0.627 ± 0.18
18 | YVPSRSGYIDFAGRNNRYSI | -0.401 ± 0.73
19 | DGTVR | 1.62 ± 0.17
20 | FSGVMLVEWLTSPRHLRRAL | 0.678 ± 1.1
21 | RNMVSLRHSEDVICVQDTTP | -0.729 ± 0.34
22 | LMLVRLVCLHLDDETHIRQR | inactive

Row | Substance | amyloid nucleation score
23 | GLMDRRTFITICVYPFMESW | 4.37 ± 0.071
24 | HTVNLAPRNPDPPS | 0.259 ± 0.77
25 | RFLAWTSLPQGAAKVIMKC | 0.126 ± 0.53
26 | TQMNR | -0.89 ± 0.51
27 | LSNFDRWKTSTVWNSGWFAA | -0.149 ± 1.3
28 | PYWWS | inactive
29 | SCKLIDRAILICWRSPTALV | 0.109 ± 1.6
30 | SCLYQGCYLNCVIDIMGCGL | 5.83 ± 0.089
31 | TMTFPKVLWPCGLVRNFCST | -0.294 ± 0.67
32 | RLCWQDIGTLFVSWPRMIFV | 0.071 ± 0.45
33 | RVILARHHPDDCMGLR | -0.26 ± 0.39
34 | ELSMCYYWRKSYIQSLGIRW | 0.733 ± 0.27
35 | DYGNTVNYSSGEDVHWL | -0.592 ± 1.7
36 | LSGSMGA | -0.105 ± 0.44
37 | ARWCEGRYSFILNKQQKLAK | 0.662 ± 0.49
38 | RVVRKPCFPGVGRILSADLA | 0.958 ± 0.59
39 | TRQRKDGYADRMQYNSPLRR | 0.342 ± 0.6
40 | GPDNVCCGSRPKISDVGYGM | inactive
41 | LLFYLRSLKMYVLYSGHTMS | 1.25 ± 0.45
42 | DYTRC | 0.391 ± 0.97
43 | PYVFLGVMDPRVYDMLLHAN | -0.085 ± 0.24
44 | QTGRFDIVSAS | 3.52 ± 0.069

Row | Substance | amyloid nucleation score
45 | YYSGGFIMVVHLWSVELRFR | 0.23 ± 0.9
46 | ICSVRSELNSSTRC | 0.803 ± 0.48
47 | FRKKCGVNEIYLWGDSG | inactive
48 | IDWQLTSLDQGSCFLA | -0.468 ± 0.88
49 | RFWINIPKYSTIL | -0.751 ± 1.7
50 | RCLTPVIRVIYFG | -0.13 ± 0.3
51 | YTVTCYCGSDTWSKMLAKVF | -1.16 ± 2.4
52 | RMVTTIIERVSIVCMKPSYR | 1.35 ± 0.88
53 | KMWIRCVIGVRMLYPFARCG | -0.138 ± 0.49
54 | AMMPLVLNQVVFDVAALTNR | 7.68 ± 0.054
55 | ENRTSNFPYKVR | 0.421 ± 0.26
56 | EYNGCYFPRIM | 0.628 ± 0.66
57 | LQQITGSCSFSGWGLK | 0.091 ± 0.46
58 | LINSFLVLWKPFIFAEGRTR | 7.903 ± 0.066
59 | RMLFSYPCESISSHLILCEV | -0.181 ± 0.5
60 | VGSSLDMPAPKRVGSEYCSV | 0.279 ± 0.66
61 | VYDLS | -0.006 ± 0.72
62 | LGNIKFITYVERCTQEVVSY | -1.49 ± 1.8
63 | WFLCSSRFISLLQ | -1.49 ± 0.47
64 | VKYLRYFSSLDLLLIVLQAI | 0.31 ± 1.2
65 | TSQENTDINGPCKLTSVLQR | 0.436 ± 0.68
66 | FANFIAVMVTGTILF | inactive

Row | Substance | amyloid nucleation score
67 | VHEMNSRTDFYKIKKSGTLV | 0.158 ± 0.29
68 | SGRPGTAQLRVVLGHNQKCA | 1.12 ± 0.97
69 | EIRLNYMGFGPKCT | 0.735 ± 0.27
70 | VFVVNTTESWHNLALFWSSR | 0.382 ± 0.45
71 | CKQCRE | -0.01 ± 0.74
72 | KLLDSSVVDSLRQHCEAGLR | 0.075 ± 0.3
73 | GLLMISISYLITRMVFMDNI | 0.412 ± 0.39
74 | IMLANVSLLVRNHGRY | 3.02 ± 0.16
75 | RDIRVHATDLNENNCVAHCR | -0.356 ± 0.32
76 | SNSSLECYCMNVVRFHLGLS | 0.735 ± 0.18
77 | RLCRTVEWCGCYSIPNLQCA | 0.118 ± 0.46
78 | LGGGTFVRWLKSILSFLLW | 0.325 ± 0.46
79 | YKFCVILSNGRQCVMALVRP | 0.286 ± 1.2
80 | VNHIWWEFQGVSAYSNFRRD | -0.417 ± 1.5
81 | WHRGYGMLTRLRWRPDTVLF | -0.052 ± 1.2
82 | LYLNADLYYE | 0.005 ± 0.7
83 | ANIHYL | 2.63 ± 0.12
84 | STLDLLCYFRREADQTINKR | 0.336 ± 0.36
85 | IYVLYQIERSVK | -0.154 ± 0.58
86 | CSAFDVIN | -0.556 ± 1.4
